Consider one molecule from KR20200067522A (dated 2020).

In experiment [1] the target is T1, CRM 197 의 A 단편(21kDa) (Corynebacterium diphtheriae C7 (β197) …, UniProt P00588 33-225).
T1 construct: domain: A 단편(21kDa); Band on a reducing SDS-PAGE / western blot after trypsin digestion
Nature of the experiment: western blot of trypsin/DTT-cleaved CRM197. Background: In western blotting, separated proteins are transferred to a membrane and probed.

Experiment [2] deals with T2, CRM 197 (Cross-reactive material 197) (Corynebacterium diphtheriae C7 (β197) …, UniProt P00588 33-567).
T2 construct: mature; Purified to more than 95% purity from the fermentation supernatant
Nature of the experiment: BLI (Octet Red), CRM197 in two-fold dilutions of 50 to 3.13 nM.

Broadly, the Kd is the concentration at which binding is half-saturated. A low value points to a tighter complex.

B1: 단일클론항체 3F9 (인간 IgG로 전환) (antibody, V domains shown)
VH: EVQLVESGGGLVQPGGSLRLSCAASGFTFSDYAMSWVRQAPGKGLEWVSAISSSSGNKYYADSVKGRFTISRDNSKNTLYLQMNSLRAEDTAVYYCAKLGVRETLSWYFDLWGQGTLVTVSS
VL: DIQMTQSPSSLSASVGDRVTITCRASQSISNYLNWYQQKPGKAPKLLIYAASRLQSGVPSRFSGSGSGTDFTLTISSLQPEDFATYYCQQSYSFPWTFGQGTKVEIK
notes: Human IgG made from a Fab of a human synthetic Fab library; kappa light chain is only implied by the anti-human kappa ELISA
Regarding B1, in experiment [1], the binding result was “no binding”. In addition, the Kd in experiment [2] is 4.45 nM.
